From publication PMC8621939, “Cryo-EM Structure of Mechanosensitive Channel YnaI Using SMA2000: Challenges and Opportunities” (Membranes, 2021)

Target: the molecule itself
Assay: cryo-EM structure; single-particle cryo-EM of SMA2000-purified YnaI, Titan Krios 300 kV; 3D classification without symmetry, final refinement with C7 symmetry, 2.4 Å; NCMN Buffer E (40 mM HEPES pH 7.8, 100 mM NaCl, 0.1 mM TCEP)

B1: low-conductance mechanosensitive channel-like (YnaI), wild type (natural protein, Escherichia coli, UniProt P0AEB5 1-343, looked up)
chain: MIAELFTNNALNLVIIFGSCAALILMSFWFRRGNRKRKGFLFHAVQFLIYTIIISAVGSIINYVIENYKLKFITPGVIDFICTSLIAVILTIKLFLLINQFEKQQIKKGRDITSARIMSRIIKITIIVVLVLLYGEHFGMSLSGLLTFGGIGGLAVGMAGKDILSNFFSGIMLYFDRPFSIGDWIRSPDRNIEGTVAEIGWRITKITTFDNRPLYVPNSLFSSISVENPGRMTNRRITTTIGLRYEDAAKVGVIVEAVREMLKNHPAIDQRQTLLVYFNQFADSSLNIMVYCFTKTTVWAEWLAAQQDVYLKIIDIVQSHGADFAFPSQTLYMDNITPPEQGR
notes: YnaI, MscS-like mechanosensitive channel of Escherichia coli, 343 aa, wild type, full length; Homoheptamer in SMA2000 native lipid particles; Only TM4, TM5 and the cytoplasmic domain are resolved in the map; seven phosphatidylethanolamine molecules were modelled; Cloned in pRSFDuet-1; also called mechanosensitive-like YnaI channel; SMA2000-YnaI; source: E. coli BL21 (DE3) pLysS, extracted from …
  stoichiometry N: 7
